Laboratory results from US20240287178A1 (YALE UNIVERSITY, published 2024).

How the values were obtained:
[1] = biological target: T1, Unc5B (analyte or ligand of the Biacore analysis; species and construct not stated); assay: Biacore (SPR); format not stated
T1 construct: The phage selection used a recombinant rat Unc5B-ECD Fc fusion (R&D Systems)

human Unc5B = biological target: T2, human Unc5B (human, UniProt Q8IZJ1 27-945); assay: Biacore
T2 construct: whole, on cells; also called Unc5B (HUVEC)

Rat UNC5B = biological target: T3, Rat UNC5B (rat, UniProt O08722); assay: Biacore
T3 construct: a recombinant rat Unc5B-ECD Fc fusion protein (R&D systems) only for the phage selection; Kept apart from m11, which is the GFP fusion expressed in PAECs; also called rat Unc5B (Biacore analysis)

mouse Unc5B [2] = biological target: T4, mouse Unc5B (mouse, UniProt Q8K1S3 27-945); assay: immunoprecipitation from Bend.3 cells after antibody treatment, western blot for Unc5B
T4 construct: whole, on cells; Endogenous receptor, on cells or in brain lysates; also called Unc5B (Bend.3 cells, mouse brain)

[3] = biological target: T5, rat Unc5B coupled to GFP, in transfected porcine aortic endothelial cells (PAECs) (rat, UniProt O08722 27-945); assay: immunoprecipitation from PAECs transfected with rat Unc5B-GFP, 1 h after antibody treatment
T5 construct: whole, on cells; also called rat Unc5B-GFP; not shown: GFP
Source text: Light (LC) and Heavy (HC) chains were sequenced for each antibody (FIGS. 1A-1D and 2A-2D).

mouse Unc5B [4] = biological target: T4, mouse Unc5B; assay: co-immunoprecipitation with the anti-Unc5B antibodies from Bend.3 cells, western blot for Claudin5

B1: antibody 1097 (antibody, V domains shown)
VH: EVQLVESGGGLVQPGGSLRLSCAASGFNLYYYSMHWVRQAPGKGLEWVASIYSYSSYTSYADSVKGRFTISADTSKNTAYLQMNSLRAEDTAVYYCARSYAMDYWGQGTLVTVSS
VL: DIQMTQSPSSLSASVGDRVTITCRASQSVSSAVAWYQQKPGKAPKLLIYSASSLYSGVPSRFSGSRSGTDFTLTISSLQPEDFATYYCQQSYGPFTFGQGTKVEIKR
Work on B1 yielded a Kd [1] of 0.7 nM, a Kd (human Unc5B) of 0.692 nM and a koff (human Unc5B) of 0.000993 s⁻¹. For the same binder, the kon (human Unc5B) was 1.44e+06 M⁻¹ s⁻¹, the Kd (Rat UNC5B) was 0.712 nM and the koff (Rat UNC5B) was 0.00104 s⁻¹. It also gave a kon (Rat UNC5B) of 1.46e+06 M⁻¹ s⁻¹.

B2: antibody 1100 (antibody, V domains shown)
VH: EVQLVESGGGLVQPGGSLRLSCAASGFNLYYSSIHWVRQAPGKGLEWVASIYSYSSYTSYADSVKGRFTISADTSKNTAYLQMNSLRAEDTAVYYCARGYAMDYWGQGTLVTVSS
VL: DIQMTQSPSSLSASVGDRVTITCRASQSVSSAVAWYQQKPGKAPKLLIYSASSLYSGVPSRFSGSRSGTDFTLTISSLQPEDFATYYCQQHYGLITFGQGTKVEIKR
B2: binds (mouse Unc5B [2]); binds [3].

B3: antibody 1095 (antibody, human IgG2, kappa, V domains shown)
VH: EVQLVESGGGLVQPGGSLRLSCAASGFNISYSSIHWVRQAPGKGLEWVAYIYPYYGYTYYADSVKGRFTISADTSKNTAYLQMNSLRAEDTAVYYCARGYGIDYWGQGTLVTVSS
VL: DIQMTQSPSSLSASVGDRVTITCRASQSVSSAVAWYQQKPGKAPKLLIYSASSLYSGVPSRFSGSRSGTDFTLTISSLQPEDFATYYCQQHYSLFTFGQGTKVEIKR
B3: binds (mouse Unc5B [2]); binds [3].

B4: anti-Unc5B antibody 1103 (antibody, V domains shown)
VH: EVQLVESGGGLVQPGGSLRLSCAASGFNISYYSIHWVRQAPGKGLEWVASIYSSSGYTSYADSVKGRFTISADTSKNTAYLQMNSLRAEDTAVYYCARGYGLDYWGQGTLVTVSS
VL: DIQMTQSPSSLSASVGDRVTITCRASQSVSSAVAWYQQKPGKAPKLLIYSASSLYSGVPSRFSGSRSGTDFTLTISSLQPEDFATYYCQQHYSYPITFGQGTKVEIKR
B4 showed a Kd [1] of 1.3 nM, a Kd (human Unc5B) of 1.29 nM and a koff (human Unc5B) of 0.000482 s⁻¹. It also gave a kon (human Unc5B) of 375000 M⁻¹ s⁻¹, a Kd (Rat UNC5B) of 1.34 nM and a koff (Rat UNC5B) of 0.000501 s⁻¹. The kon (Rat UNC5B) was 375000 M⁻¹ s⁻¹.

B5: antibody 1101 (antibody, V domains shown)
VH: EVQLVESGGGLVQPGGSLRLSCAASGFNIYYSSMHWVRQAPGKGLEWVAYISSSYGYTYYADSVKGRFTISADTSKNTAYLQMNSLRAEDTAVYYCARGYYAGYFGIDYWGQGTLVTVSS
VL: DIQMTQSPSSLSASVGDRVTITCRASQSVSSAVAWYQQKPGKAPKLLIYSASSLYSGVPSRFSGSRSGTDFTLTISSLQPEDFATYYCQQAGWPITFGQGTKVEIKR
B5: binds [3].

B6: antibody 1099 (antibody, V domains shown)
VH: EVQLVESGGGLVQPGGSLRLSCAASGFNLYYYSIHWVRQAPGKGLEWVASIYPYSSYTSYADSVKGRFTISADTSKNTAYLQMNSLRAEDTAVYYCARGYAFNYWGQGTLVTVSS
VL: DIQMTQSPSSLSASVGDRVTITCRASQSVSSAVAWYQQKPGKAPKLLIYSASSLYSGVPSRFSGSRSGTDFTLTISSLQPEDFATYYCQQHYALFTFGQGTKVEIKR
B6: binds [3].

B7: antibody 1102 (antibody, V domains shown)
VH: EVQLVESGGGLVQPGGSLRLSCAASGFNIYYSSMHWVRQAPGKGLEWVASIYSYSSYTSYADSVKGRFTISADTSKNTAYLQMNSLRAEDTAVYYCARSFAMDYWGQGTLVTVSS
VL: DIQMTQSPSSLSASVGDRVTITCRASQSVSSAVAWYQQKPGKAPKLLIYSASSLYSGVPSRFSGSRSGTDFTLTISSLQPEDFATYYCQQAYSPFTFGQGTKVEIKR
B7: binds [3].

B8: antibody 1096 (antibody, V domains shown)
VH: EVQLVESGGGLVQPGGSLRLSCAASGFNLYYSSIHWVRQAPGKGLEWVASIYSYSSYTSYADSVKGRFTISADTSKNTAYLQMNSLRAEDTAVYYCARSYAMDYWGQGTLVTVSS
VL: DIQMTQSPSSLSASVGDRVTITCRASQSVSSAVAWYQQKPGKAPKLLIYSASSLYSGVPSRFSGSRSGTDFTLTISSLQPEDFATYYCQQGFAPFTFGQGTKVEIKR
B8: binds (mouse Unc5B [2]); binds [3].

B9: antibody 1098 (antibody, V domains shown)
VH: EVQLVESGGGLVQPGGSLRLSCAASGFNIYYSYMHWVRQAPGKGLEWVASIYSYSSYTSYADSVKGRFTISADTSKNTAYLQMNSLRAEDTAVYYCARHYAMDYWGQGTLVTVSS
VL: DIQMTQSPSSLSASVGDRVTITCRASQSVSSAVAWYQQKPGKAPKLLIYSASSLYSGVPSRFSGSRSGTDFTLTISSLQPEDFATYYCQQSYSPFTFGQGTKVEIKR
B9: binds (mouse Unc5B [2]); binds [3].

B10: mouse Claudin5 (other, UniProt O54942 1-218, looked up)
chain: MGSAALEILGLVLCLVGWVGLILACGLPMWQVTAFLDHNIVTAQTTWKGLWMSCVVQSTGHMQCKVYESVLALSAEVQAARALTVGAVLLALVALFVTLTGAQCTTCVAPGPVKARVALTGGALYAVCGLLALVPLCWFANIVVREFYDPTVPVSQKYELGAALYIGWAASALLMCGGGLVCCGAWVCTGRPEFSFPVKYSAPRRPTANGDYDKKNYV
B10: binds (mouse Unc5B [4]).
